The test system of the data set is Nc1nc2c(ncn2[C@@H]2O[C@H](COP(=O)(O)OP(=O)(O)OP(=O)(O)O)[C@@H](O)[C@H]2O)c(=O)[nH]1. In words: purified protein. It is filed as biochemical, Blastocystis hominis. The settings on record: 129 μM CoA, 10 mM succinate, 50 mM KCl, 10 mM MgCl2, 50 mM Tris-HCl pH 7.4, 30 nM enzyme.

Turning to “Blastocystis SCS (succinyl-CoA synthetase, SCSα + SCSβ) (Blastocystis sp. ATCC 50177/Nand II; K128D/K60E)”, the Km (as a rule, the concentration of substrate that gives half-maximal velocity) was determined as 143 ± 17 µM; the kcat (commonly the number of substrate molecules converted per active site and unit of time at saturation) was determined as 0.0195 ± 0.001 s⁻¹; the kcat/Km – broadly, the turnover number divided by the Michaelis constant – came out at 136 M⁻¹ s⁻¹.
The corresponding values for “Blastocystis SCS (succinyl-CoA synthetase, SCSα + SCSβ) (Blastocystis sp. ATCC 50177/Nand II; K128D/K60E/L241F/V127L)” are 82 ± 12 µM, 0.0078 ± 0.0004 s⁻¹ and 96 M⁻¹ s⁻¹.

For the origin of these results see paper PMC5404824, “Engineering Nucleotide Specificity of Succinyl-CoA Synthetase in Blastocystis: The Emerging Role of Gatekeeper Residues” (Biochemistry, 2016).
